Some results are limits rather than exact numbers.

Consider 1 molecule from PMC5845987.

Assay [1] deals with CCAAT/enhancer binding protein β (C/EBPβ) (UniProt P17676).
The target is the same in assay [2]. The source holds these as a separate data set.

Chain of UniProt P17676 (P17676 whole entry): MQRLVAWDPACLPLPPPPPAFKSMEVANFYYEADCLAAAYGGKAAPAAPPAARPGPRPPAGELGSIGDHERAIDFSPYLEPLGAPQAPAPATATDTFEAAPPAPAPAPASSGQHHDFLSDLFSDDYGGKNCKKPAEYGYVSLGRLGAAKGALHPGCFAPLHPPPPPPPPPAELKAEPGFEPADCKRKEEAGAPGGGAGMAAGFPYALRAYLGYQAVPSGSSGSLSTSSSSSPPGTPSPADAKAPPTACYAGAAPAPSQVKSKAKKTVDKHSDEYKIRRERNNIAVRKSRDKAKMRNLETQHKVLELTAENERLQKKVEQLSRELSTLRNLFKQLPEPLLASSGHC

B1: HPV8 E2 protein (human papillomavirus type 8 transcription factor E2) (natural protein)
chain: MENLSERFNVLQDQLMNIYEAAEQTLEAQIAHWLLLRKEAVLLYFARQKGITRIGYQPVPPLAVSEAKAKQAIGIMLQLQSLQKSEFADEPWTLVDTSIETYKNAPENHFKKGATPVEVIYDKQPDNANVYTMWKHIYYTDADDKWHKTTSGVNQTGIYYMQGSFRHYYVVFADDARRYSATGEWEVKINKDTVFAPVTSSTPPGSPPGQADTDTAAKTPTTSADSTSRQQRSPAKQPQQTETKGRRYGRRPSSRTRPQKEQRRSRSRHRTRSRSRSLSRVRAVGSTTVSRSRSSSLTKAVRPRSRSRSRGRATATSRRRAGRGSPRRRRSTSRSPSTNTFKRSQRGGGRRGRGRGSRGRRERSSSTSPTPTKRSRGESSRLRGVSPSEVGRSVQSVSAKHTGRLGRLLDEAIDPPVILVRGEANTLKCFRNRARVRYRGLFKYFSTTWSWVAGDSTERLGRSRMLILFTSAGQRKDFDETVKYPKGVDTSYGNLDSL
Consider B1, for which, in assay [1], the murine S100A8 promoter luciferase reporter activity in RTS3b cells co-transfected with 0.005 μg C/EBPβ and 0.005, 0.04 or 0.2 μg HPV8 E2 expression vector (control set at 1) came to 7 fold. Also, in assay [2], the endogenous S100A8 mRNA (qRT-PCR) in RTS3b cells co-transfected with HPV8 E2 and C/EBPβ: enhancement of C/EBPβ-mediated induction was over 25 fold; the endogenous S100A8 protein level (Western blot quantification) in RTS3b cells co-transfected with HPV8 E2 and C/EBPβ was found to be 90 fold; the endogenous S100A9 mRNA (qRT-PCR) in RTS3b cells co-transfected with HPV8 E2 and C/EBPβ: enhancement of C/EBPβ-mediated induction is 6 fold; the endogenous S100A9 protein level (Western blot quantification) in RTS3b cells co-transfected with HPV8 E2 and C/EBPβ stood at 31 fold.
